Tests used:
[1] = molecular target: Strep-Tactin-SpyCatcherΔ subunit; experiment: refolding of mixed subunits, anion exchange chromatography, SDS-PAGE densitometry; subunits from washed inclusion bodies mixed at 3:1, refolded by rapid dilution, tetramers separated on Mono Q; boiled peak samples on reducing SDS-PAGE, bands normalised for molecular weight and converted to a subunit ratio; settings: both partners purified
[2] = molecular target: the molecule itself; experiment: as above

Chain of Strep-Tactin-SpyCatcherΔ subunit (chain, as listed by the source mutant): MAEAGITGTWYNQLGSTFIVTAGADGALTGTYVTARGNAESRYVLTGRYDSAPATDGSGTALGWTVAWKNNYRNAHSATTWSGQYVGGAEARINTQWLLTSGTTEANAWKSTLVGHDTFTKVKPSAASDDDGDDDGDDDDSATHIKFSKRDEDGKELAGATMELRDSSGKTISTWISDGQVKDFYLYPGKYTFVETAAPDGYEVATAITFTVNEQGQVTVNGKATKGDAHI

B1: dead streptavidin subunit (other)
chain: MAEAGITGTWYAQLGDTFIVTAGADGALTGTYEAAVGNAESRYVLTGRYDSAPATDGSGTALGWTVAWKNNYRNAHSATTWSGQYVGGAEARINTQWLLTSGTTEANAWKSTLVGHDTFTKVKPSAAS
notes: also called dead streptavidin monomer
Question: For B1, which “stoichiometry N” value [1] is on record?
Answer: 3.7 dead streptavidin per Strep-Tactin-SpyCatcherΔ

Question: Does B1 bind [2]?
Answer: binds
